Measurements taken from US9629910B2, “Use of Th9 cells and IL-9 for the treatment of melanoma” (THE BRIGHAM AND WOMEN'S HOSPITAL, INC., priority 2011, dated 2017).

Experiments:
[1] = tested on: B16F10 melanoma cells; test: B16F10 melanoma growth in mice treated with rIL-9 (i.p.); type: in vivo
Description: (§1) Melanoma cell lines (B16F10 cells or B16F10-ova cells), T cell lymphoma (EL-4 or ovalbumin expressing EL-4 (EG-7)) and Lewis lung carcinoma (LLC1) were grown in RPMI1640 supplemented with 10% FBS, and penicillin/streptomycin. B16F10 cells (2-4×10^5 cells/150 μl/mouse), EL-4 (2×10^5 cells/150 μA/mouse), or LLC1 (5×10^5 cells/150 μA/mouse) were injected subcutaneously into the right or left flank of the mice and tumor development was monitored over time. Tumor volume was calculated by following formula: (major circumference×minor circumference^2)/2. Mice were sacrificed when there was external necrosis or/and tumor volume reached no greater than 2 cm in any direction.
(§2) rIL-9 (5 μg/100 μA PBS/mouse from Cell Sciences, USA) was injected (ip) from day 0 and every third day till the termination of the experiment. In lewis lung carcinoma (LLC-1) model, rIL-9 (50 ng/100 μl PBS/mouse from RnD systems) was used on every alternate day till the termination of experiment. Unlike Cell Science rIL-9 (source: E. coli), rIL-9 from RnD systems is glycosylated and therefore has stronger biological activity compared to Cell Sciences. Thus, 100 times less rIL-9 was used in LLC-1 tumor model experiments compared to melanoma model experiments.

[2] = tested on: Lewis lung carcinoma (LLC-1) cells; test: Lewis lung carcinoma (LLC-1) tumor growth in mice treated with rIL-9; type: in vivo
Description: as §1, §2

[3] = tested on: EL-4 T lymphoma cells; test: EL-4 tumor growth in mice treated with IL-9; type: in vivo; conditions: IL-9 treatment (data not included)
Description: as §1

[4] = tested on: B16F10 cells; test: Growth curve assay of tumor cells with rIL-9 (crystal violet); type: cell-based, mouse; conditions: melanoma cells and lung carcinoma cells, rIL-9 at different concentrations (FIG. 10D)
Description: Effect of rIL-9 on growth of B16F10 cells were studied by growth curve assay. B16F10 cells were seeded with rIL-9. After each incubation period cells were fixed (10% acetic acid in 10% ethanol). Cells were subsequently stained with 0.4% crystal violet in 10% ethanol for 30 min. Subsequently, 200 μl 10% acetic acid was added. After 30 min, 100 μL solution was transferred into 96-well plate and OD was measured at 595-wavelength.

B1: rIL-9: recombinant interleukin-9 cytokine from Cell Sciences, injected ip 5 μg/mouse in melanoma model (protein, UniProt P15247 19-144, looked up)
Interleukin-9: QRCSTTWGIRDTNYLIENLKDDPPSKCSCSGNVTSCLCLSVPTDDCTTPCYREGLLQLTNATQKSRLLPVFHRVKRIVEVLKNITCPSFSCEKPCNQTMAGNTLSFLKSLLGTFQKTEMQRQKSRP
melanoma growth ([1]; Rag1-/- C57BL/6 mice (lack T and B cells), rIL-9 vs PBS (FIG. 5D)): significantly slowed melanoma growth | tumor development ([1]; mast cell deficient mice (Kit W-sh), B16 melanoma, vs control (FIG. 5E)): no significant difference in tumor development | survival of mice ([1]; melanoma bearing mice, rIL-9 (data not shown)): increased the survival of mice | melanoma growth in vaccinated mice ([1]; mice vaccinated with 1 million irradiated melanoma cells, melanoma cells injected 7 days later, rIL-9 vs PBS): significantly slower melanoma growth | melanoma growth ([1]; normal WT mice, B16F10 s.c., rIL-9 i.p. vs PBS (FIG. 5B)): impaired melanoma growth | tumor development ([2]; mast cell deficient mice (Kit W-sh), LLC-1, vs control (FIG. 5F)): no significant difference in tumor development | LLC-1 tumor development ([2]; normal WT mice, rIL-9 vs control group (FIG. 5C)): significantly suppressed | EL-4 tumor growth [3]: neither inhibition nor acceleration | tumor cell growth in vitro [4]: does not affect the growth of these cells in vitro
